This is an account of results in patent publication US20180155451A1 (published 2018).

In assay [1] the target is T1, FcγRIIb extracellular domain with C-terminal His tag (human, UniProt P31994 43-217).
T1 construct: extracellular domain; Soluble receptor expressed in FreeStyle293 cells, used as analyte in Biacore; also called FcgRIIb; CD32B; not shown: His tag at the C terminus
T1 sequence (looked up): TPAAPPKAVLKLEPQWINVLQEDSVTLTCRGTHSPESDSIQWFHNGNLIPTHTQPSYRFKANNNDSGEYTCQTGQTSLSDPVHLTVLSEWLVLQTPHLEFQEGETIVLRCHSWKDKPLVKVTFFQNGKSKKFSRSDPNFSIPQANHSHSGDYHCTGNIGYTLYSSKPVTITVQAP
The assay can be described thus: SPR (Biacore), antibody captured via antigen peptide, FcγR as analyte; binding relative to GpH7-A5/GpH7-B3/GpL16-k0 = 100.

The target in assay [2] is T2, FcγRIa extracellular domain with C-terminal His tag (human, UniProt P12314 16-292).
T2 construct: extracellular domain; Soluble receptor expressed in FreeStyle293 cells, used as analyte in Biacore; also called FcgRI; CD64; not shown: His tag at the C terminus
T2 sequence (P12314 16-292): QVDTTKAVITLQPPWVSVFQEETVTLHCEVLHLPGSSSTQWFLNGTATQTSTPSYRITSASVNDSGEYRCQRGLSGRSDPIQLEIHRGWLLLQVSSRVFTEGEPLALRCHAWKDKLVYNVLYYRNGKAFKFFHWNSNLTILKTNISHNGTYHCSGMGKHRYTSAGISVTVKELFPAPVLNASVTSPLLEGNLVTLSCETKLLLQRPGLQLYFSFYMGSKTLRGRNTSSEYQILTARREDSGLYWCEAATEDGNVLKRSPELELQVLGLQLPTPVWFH
The assay is described as above.

Assay [3] concerns the target T3, FcγRIIIa extracellular domain with C-terminal His tag (human, UniProt P08637 17-208).
T3 construct: extracellular domain; also called FcgRIIIa; 3a; not shown: His tag at the C terminus
The assay can be described thus: SPR (Biacore), antibody captured on antigen peptide chip, FcγR as analyte; relative binding amount. As for the experimental part: (§1) Analysis of interaction between objective antibody and the FcγR was carried out using Biacore T100 (GE Healthcare). HBS-EP+ (GE Healthcare) was used as the running buffer, and the measurement temperature was set to 25° C. Chips produced by immobilizing the antigen peptide by the amine coupling method to a Series S Sencor Chip CM5 (GE Healthcare), or alternatively, chips produced by allowing preliminarily biotinylated antigen peptides to interact with and immobilize onto a Series S Sensor Chip SA (certified) (GE Healthcare) were used. Antibodies of interest were captured onto an antigen peptide-immobilized chip, and allowed to interact to each FcγR diluted with running buffer. To regenerate and repeatedly use the chip, the antibodies captured on the chip were washed off by reacting 10 mM glycine-HCl, pH 1.5.
(§2) The FcγR-binding activity of each antibody was assessed primarily using as an indicator the FcγR-binding activity and dissociation constant for FcγR.
On the technique in general: SPR reads the build-up and loss of mass on a sensor chip optically.

Assay [4] deals with T4, FcγRIIb extracellular domain with C-terminal His tag (human, UniProt P31994 43-217).
T4 construct: extracellular domain; also called FcgRIIb; 2b; not shown: His tag at the C terminus
T4 sequence (looked up): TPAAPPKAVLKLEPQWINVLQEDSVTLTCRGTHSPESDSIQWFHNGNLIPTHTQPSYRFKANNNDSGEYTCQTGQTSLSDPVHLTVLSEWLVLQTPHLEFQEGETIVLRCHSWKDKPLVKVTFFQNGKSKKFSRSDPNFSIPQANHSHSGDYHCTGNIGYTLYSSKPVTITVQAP
The description is as above. As for the experimental part: as §1, §2

T3 sequence (P08637 17-208): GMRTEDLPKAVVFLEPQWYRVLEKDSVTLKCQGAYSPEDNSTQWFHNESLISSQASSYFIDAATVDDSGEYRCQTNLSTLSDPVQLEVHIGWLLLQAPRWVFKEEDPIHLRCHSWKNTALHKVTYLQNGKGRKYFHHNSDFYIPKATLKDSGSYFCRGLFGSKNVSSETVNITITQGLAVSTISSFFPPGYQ

B1: GpH7-A5/GpH7-B3 variant P271_06M/GpL16-k0 (antibody, human IgG1, kappa)
heavy 1: not shown
heavy 2: not shown
light: DIVMTQSPLSLPVTPGEPASISCQASESLVHSNRNTYLHWYLQKPGQSPQLLIYKVSNRFSGVPDRFSGSGSGTDFTLKISRVEAEDVGVYYCSQNTHVPPTFGQGTKVEIERTVAAPSVFIFPPSDEQLKSGTASVVCLLNNFYPREAKVQWKVDNALQSGNSQESVTEQDSKDSTYSLSSTLTLSKADYEKHKVYACEVTHQGLSSPVTKSFNRGEC
notes: Heterodimerized anti-glypican-3 IgG1; substitution in only one H chain; also called P271M; He Ab
As for B1, in assay [1], the He/Con_2b is 77.5 % of control (GpH7-A5/GpH7-B3/GpL16-k0 = 100). The He/Con_1a in assay [2] was 102 % of control (GpH7-A5/GpH7-B3/GpL16-k0 = 100).

B2: GpH7-A5/GpH7-B3 variant S298_08L/GpL16-k0 (antibody, human IgG1, kappa)
heavy 1: not shown
heavy 2: not shown
light: DIVMTQSPLSLPVTPGEPASISCQASESLVHSNRNTYLHWYLQKPGQSPQLLIYKVSNRFSGVPDRFSGSGSGTDFTLKISRVEAEDVGVYYCSQNTHVPPTFGQGTKVEIERTVAAPSVFIFPPSDEQLKSGTASVVCLLNNFYPREAKVQWKVDNALQSGNSQESVTEQDSKDSTYSLSSTLTLSKADYEKHKVYACEVTHQGLSSPVTKSFNRGEC
notes: Heterodimerized anti-glypican-3 IgG1; the substitution stands in the GpH7-B3 chain only; also called He Ab
On to B2, for which the He/Con_3a in assay [3] is 73.5 % of GpH7-A5/GpH7-B3/GpL16-k0 (=100). Further, the He/Con_2b in assay [4] was 108 % of GpH7-A5/GpH7-B3/GpL16-k0 (=100).

B3: GpH7-A5/GpH7-B3 variant Y300_19Q/GpL16-k0 (antibody, human IgG1, kappa)
heavy 1: not shown
heavy 2: not shown
light: DIVMTQSPLSLPVTPGEPASISCQASESLVHSNRNTYLHWYLQKPGQSPQLLIYKVSNRFSGVPDRFSGSGSGTDFTLKISRVEAEDVGVYYCSQNTHVPPTFGQGTKVEIERTVAAPSVFIFPPSDEQLKSGTASVVCLLNNFYPREAKVQWKVDNALQSGNSQESVTEQDSKDSTYSLSSTLTLSKADYEKHKVYACEVTHQGLSSPVTKSFNRGEC
notes: as for B2
B3: the He/Con_3a in assay [3] is 96.3 % of GpH7-A5/GpH7-B3/GpL16-k0 (=100). Also, the He/Con_2b in assay [4] is 108 % of GpH7-A5/GpH7-B3/GpL16-k0 (=100).

B4: GpH7-A5/GpH7-B3 variant P271_11K/GpL16-k0 (antibody, human IgG1, kappa)
heavy 1: not shown
heavy 2: not shown
light: DIVMTQSPLSLPVTPGEPASISCQASESLVHSNRNTYLHWYLQKPGQSPQLLIYKVSNRFSGVPDRFSGSGSGTDFTLKISRVEAEDVGVYYCSQNTHVPPTFGQGTKVEIERTVAAPSVFIFPPSDEQLKSGTASVVCLLNNFYPREAKVQWKVDNALQSGNSQESVTEQDSKDSTYSLSSTLTLSKADYEKHKVYACEVTHQGLSSPVTKSFNRGEC
notes: Heterodimerized anti-glypican-3 IgG1; substitution in only one H chain; also called P271K; He Ab
Regarding B4, the He/Con_2b in assay [1] is 90.2 % of control (GpH7-A5/GpH7-B3/GpL16-k0 = 100). Besides, in assay [2], the He/Con_1a was 103 % of control (GpH7-A5/GpH7-B3/GpL16-k0 = 100).

B5: GpH7-A5/GpH7-B3 variant P271_07I/GpL16-k0 (antibody, human IgG1, kappa)
heavy 1: not shown
heavy 2: not shown
light: DIVMTQSPLSLPVTPGEPASISCQASESLVHSNRNTYLHWYLQKPGQSPQLLIYKVSNRFSGVPDRFSGSGSGTDFTLKISRVEAEDVGVYYCSQNTHVPPTFGQGTKVEIERTVAAPSVFIFPPSDEQLKSGTASVVCLLNNFYPREAKVQWKVDNALQSGNSQESVTEQDSKDSTYSLSSTLTLSKADYEKHKVYACEVTHQGLSSPVTKSFNRGEC
notes: Heterodimerized anti-glypican-3 IgG1; substitution in only one H chain; also called P271I; He Ab
As for B5, the He/Con_2b in assay [1] was 76.8 % of control (GpH7-A5/GpH7-B3/GpL16-k0 = 100). Moreover, in assay [2], the He/Con_1a was 102 % of control (GpH7-A5/GpH7-B3/GpL16-k0 = 100).

B6: GpH7-A5/GpH7-B3 variant P271_13S/GpL16-k0 (antibody, human IgG1, kappa)
heavy 1: not shown
heavy 2: not shown
light: DIVMTQSPLSLPVTPGEPASISCQASESLVHSNRNTYLHWYLQKPGQSPQLLIYKVSNRFSGVPDRFSGSGSGTDFTLKISRVEAEDVGVYYCSQNTHVPPTFGQGTKVEIERTVAAPSVFIFPPSDEQLKSGTASVVCLLNNFYPREAKVQWKVDNALQSGNSQESVTEQDSKDSTYSLSSTLTLSKADYEKHKVYACEVTHQGLSSPVTKSFNRGEC
notes: Heterodimerized anti-glypican-3 IgG1; substitution in only one H chain; also called P271S; He Ab
As for B6, the He/Con_2b in assay [1] was 87.6 % of control (GpH7-A5/GpH7-B3/GpL16-k0 = 100). In assay [2], the He/Con_1a is 102 % of control (GpH7-A5/GpH7-B3/GpL16-k0 = 100).

B7: GpH7-A5/GpH7-B3 variant S298_06M/GpL16-k0 (antibody, human IgG1, kappa)
heavy 1: not shown
heavy 2: not shown
light: DIVMTQSPLSLPVTPGEPASISCQASESLVHSNRNTYLHWYLQKPGQSPQLLIYKVSNRFSGVPDRFSGSGSGTDFTLKISRVEAEDVGVYYCSQNTHVPPTFGQGTKVEIERTVAAPSVFIFPPSDEQLKSGTASVVCLLNNFYPREAKVQWKVDNALQSGNSQESVTEQDSKDSTYSLSSTLTLSKADYEKHKVYACEVTHQGLSSPVTKSFNRGEC
notes: as for B2
In the case of B7, in assay [3], the He/Con_3a is 92.6 % of GpH7-A5/GpH7-B3/GpL16-k0 (=100). Also, the He/Con_2b in assay [4] is 102 % of GpH7-A5/GpH7-B3/GpL16-k0 (=100).

B8: GpH7-A5/GpH7-B3 variant P271_12R/GpL16-k0 (antibody, human IgG1, kappa)
heavy 1: not shown
heavy 2: not shown
light: DIVMTQSPLSLPVTPGEPASISCQASESLVHSNRNTYLHWYLQKPGQSPQLLIYKVSNRFSGVPDRFSGSGSGTDFTLKISRVEAEDVGVYYCSQNTHVPPTFGQGTKVEIERTVAAPSVFIFPPSDEQLKSGTASVVCLLNNFYPREAKVQWKVDNALQSGNSQESVTEQDSKDSTYSLSSTLTLSKADYEKHKVYACEVTHQGLSSPVTKSFNRGEC
notes: Heterodimerized anti-glypican-3 IgG1; substitution in only one H chain; also called P271R; He Ab
For the molecule B8, in assay [1], the He/Con_2b was 86.5 % of control (GpH7-A5/GpH7-B3/GpL16-k0 = 100). Further, in assay [2], the He/Con_1a is 102 % of control (GpH7-A5/GpH7-B3/GpL16-k0 = 100).
